Assays:
HLA-A*01:01 = test: IEDB peptide-MHC binding, purified MHC/direct/fluorescence; filed as Kd, often an IC50 or EC50 that approximates it; ≥ and ≤ were set here for values at or beyond the usual limits of such assays; conditions: source organism: Mycobacterium tuberculosis
HLA-A*02:01 [1] = test: as above; conditions: source organism: Mycobacterium tuberculosis
HLA-A*03:01 = test: as above; conditions: source organism: Mycobacterium tuberculosis
HLA-A*11:01 = test: as above; conditions: source organism: Mycobacterium tuberculosis
HLA-A*26:01 = test: as above; conditions: source organism: Mycobacterium tuberculosis str. Haarlem
HLA-A*31:01 = test: as above; conditions: source organism: Mycobacterium tuberculosis
HLA-A*69:01 = test: as above; conditions: source organism: Mycobacterium tuberculosis
HLA-B*08:01 = test: as above; conditions: source organism: Mycobacterium tuberculosis str. Haarlem
HLA-B*15:01 [2] = test: as above; conditions: source organism: Mycobacterium tuberculosis
HLA-B*15:17 = test: as above; conditions: source organism: Mycobacterium tuberculosis
HLA-B*18:01 = test: as above; conditions: source organism: Mycobacterium tuberculosis
HLA-B*27:05 = test: as above; conditions: source organism: Mycobacterium tuberculosis
HLA-B*40:01 [3] = test: as above; conditions: source organism: Mycobacterium tuberculosis
HLA-B*46:01 = test: as above; conditions: source organism: Mycobacterium tuberculosis
HLA-B*48:01 = test: as above; conditions: source organism: Mycobacterium tuberculosis
HLA-B*57:01 = test: as above; conditions: source organism: Mycobacterium tuberculosis
HLA-B*58:01 = test: as above; conditions: source organism: Mycobacterium tuberculosis
HLA-B*15:09 = test: IEDB peptide-MHC binding, purified MHC/competitive/fluorescence; filed as Kd, often an IC50 or EC50 that approximates it; ≥ and ≤ were set here for values at or beyond the usual limits of such assays; conditions: source organism: Mycobacterium tuberculosis str. Haarlem
HLA-A*02:01 [4] = test: as above; conditions: source organism: Shigella boydii CDC 3083-94
HLA-B*07:02 = test: as above; conditions: source organism: Shigella boydii CDC 3083-94
HLA-B*15:01 [5] = test: as above; conditions: source organism: Shigella boydii CDC 3083-94
HLA-B*39:01 = test: as above; conditions: source organism: Shigella boydii CDC 3083-94
HLA-B*40:01 [6] = test: as above; conditions: source organism: Shigella boydii CDC 3083-94

IPAPGLGAL showed a Kd (HLA-A*01:01) of at least 20 µM, a Kd (HLA-A*02:01 [1]) of at least 20 µM and a Kd (HLA-A*03:01) of at least 20 µM. The Kd (HLA-A*11:01) was at least 20 µM, the Kd (HLA-A*26:01) was 11.1 µM and the Kd (HLA-A*31:01) was at least 20 µM. For the same sequence, the Kd (HLA-A*69:01) was 240 nM, the Kd (HLA-B*08:01) was at least 20 µM and the Kd (HLA-B*15:01 [2]) was at least 20 µM. It also gave a Kd (HLA-B*15:17) of at least 20 µM, a Kd (HLA-B*18:01) of at least 20 µM and a Kd (HLA-B*27:05) of at least 20 µM. It also gave a Kd (HLA-B*40:01 [3]) of at least 20 µM, a Kd (HLA-B*46:01) of at least 20 µM and a Kd (HLA-B*48:01) of at least 20 µM. For the same sequence, the Kd (HLA-B*57:01) was at least 20 µM, the Kd (HLA-B*58:01) was at least 20 µM and the Kd (HLA-B*15:09) was 4.06 µM.
Work on QEPGIFCAI yielded a Kd (HLA-A*02:01 [4]) of 116 nM, a Kd (HLA-B*07:02) of at least 20 µM and a Kd (HLA-B*15:01 [5]) of at least 20 µM. It also gave a Kd (HLA-B*39:01) of 496 nM and a Kd (HLA-B*40:01 [6]) of 10.5 nM.
